Laboratory results published in patent publication US12624096B2, “Anti-tau antibodies and methods of use thereof” (GTInvent Limited, priority 2020, dated 2026).

What was measured:
hT40 [1] = biological target: T1, hT40 (Homo sapiens, UniProt P10636); assay: Biacore X100 SPR, scAb captured via anti-HuCk, hT40 as analyte; assay type: binding; details: scAb
Procedure, shortened: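 Captured scAb on anti-HuCk CM5 surface (flow cell 1 as reference) in HBS-EP+, capture set for theoretical RMax 100 RU; hT40 injected multi-cycle (0.15625–100 nM) or single-cycle (6.25–100 nM), 120 s association, 420 s dissociation, glycine pH 2.0 regeneration. Kinetics and affinity from 1:1 binding model fit.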

dGAE = dGAE (Homo sapiens, UniProt P10636); assay: Biacore X100 SPR, scAb captured via anti-HuCk, dGAE as analyte; assay type: binding; details: dissociation rate
Chain of dGAE (P10636 614-708): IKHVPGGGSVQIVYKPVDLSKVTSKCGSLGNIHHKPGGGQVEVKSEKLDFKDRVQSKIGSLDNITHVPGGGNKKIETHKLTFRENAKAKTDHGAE
Procedure: Surface plasmon resonance (SPR) is widely regarded as the gold standard for real time measurement of protein-protein interactions such as antibody binding. All SPR experiments were carried out using a Biacore X100 machine and HBS EP+ running buffer (GE Healthcare). A ‘capture’ method was followed for affinity measurements, where an anti-human constant kappa chain (HuCk) antibody was conjugated to the surface of a CM5 sensor chip using an amine coupling kit and scAb molecules were immobilised via their HuCk domain. Amine coupling is a very common approach for immobilising the ligand to the chip surface. The chip surface has a dextran matrix derivatised with carboxyl groups, which after activation with N-hydroxysuccinimide (NHS) and 1-ethyl-3-(3-dimethylaminopropyl) carbodiimide (EDC), form reactive succinimide esters which allows the covalent capturing of the ligand via any available primary amine groups (e.g. Lysine) on the ligand (in this case anti-HuCk antibody). The capture antibody was diluted 1/100 in 10 mM Sodium acetate buffer pH 5.0 and passed over the activated chip surface for a period of at least 420 s. […]
The single cycle kinetics protocol was similar and utilised the same level of scAb capture. […] Binding responses were analysed in Biacore X100 evaluation software and data fitted to a 1:1 binding model to obtain kinetic and affinity characterisation.

[2] = system: hT40, dGA, dGAE and truncated tau fragments/peptides; assay: Binding ELISA for epitope mapping with truncated tau proteins and biotinylated 13mer peptides; design: species or system human; details: direct binding ELISA
Procedure: A series of binding ELISA was performed using various truncated versions of the tau protein and 13mer peptide libraries spanning the entire hT40 molecule for mapping the epitopes of anti-tau scAbs (Full list of protein antigens used is given in Table 14). In general, ELISA plates were coated with 1 μg/ml hT40 or dGA or dGAE or other truncated versions of the protein and in the case of biotinylated peptides, plates were coated with 5 μg/ml Streptavidin followed by 1 μg/ml biotinylated peptide. The plates were blocked with 2% MPBS and scAb samples added at desired starting concentrations and double diluted across the plate. Binding was detected using anti-Human C Kappa HRP conjugated secondary antibody and the resulting immunoreaction was developed and absorbance values measured as described above.
Similarly, dGA binding ‘NS’, ‘S’ and ‘M’ group scAbs were subjected to further antigen binding ELISA using shorter tau proteins and biotinylated 13mer peptides as shown below (FIGS. 10A-F) and (FIGS. 11A-R).
For anti-tau mAb SPR measurements (Biacore X100™) and epitope mapping, the same methodologies described above (see Example 16) were followed.

aggregated dGAE = aggregated dGAE (Homo sapiens, UniProt P10636); assay: Capture ELISA ranking of mAbs on dGAE aggregates; assay type: binding; details: 1 μg/ml capture mAb, 800 nM aggregated dGAE
Chain of aggregated dGAE (P10636 614-708): as above
Procedure: The aggregation cascade of natively unfolded tau into insoluble filaments is a defining pathological feature of AD. Therefore, it is logical to target aggregated tau filaments for both therapeutic and diagnostic purposes. The following experiment was performed to assess the ability of our dGA mAb panel to bind aggregated dGAE using a capture ELISA method. Aggregates were prepared by incubating 100 μM dGAE and 10 mM dTT for 24 h at 37° C. with shaking at 700 RPM. The following day, dGAE aggregates were centrifuged at 17,000×g for 20 min and the supernatant was removed. The remaining pellet was washed with 10 mM phosphate buffer and centrifuged as above. Washing was repeated a further two times to remove any remaining dGAE monomer. The dGAE pellet was resuspended in 100 μl of 10 mM phosphate buffer. (Using a separate capture ELISA based quantification, we have worked out the efficiency of our dGAE aggregation as 80%)
For assessing the mAb panel for aggregate binding, designated rows of a maxisorp plate were coated with 1 μg/ml of each of the capture mAbs (S1D12, S1G2, CA4, NS2A1, CE2, E2E8 and CB7) and blocked as before. Following washing, 800 nM aggregated dGAE was added to the designated wells, double diluted across the plate and incubated for 1 h at RT. The plate was washed again and 1 μg/ml S1G2 scAb was added as detection antibody and incubated for 1 h at RT. To the row where S1G2 mAb was used for capture, […] s1D12 scAb was added as […] instead of S1G2. The assay was developed using HRP labelled HuCK as described previously.

hT40 [3] = biological target: T1, hT40; assay: Sandwich ELISA, limits of detection (LoD) of antibody pairs; assay type: binding; details: S1D12 mAb capture, detection scAb
Procedure: Full length tau (hT40), at 1 μg/ml starting concentration was added to designated wells and double diluted across rest of the plates and left to incubate at R/T for 1 h. A series of detection scAbs with varying epitope recognition properties were added at 10 μg/ml to designated wells (FIG. 22). For colourimetric detection HRP conjugated anti-HuCk secondary antibody was used and the resulting immunoreaction was developed and absorbance at 450 nm measured as described previously. Cut-off point for a positive binding event was an absorbance value of 0.3 following background subtraction. In order to enhance the assay sensitivity, a chemiluminescent detection method was adopted where 50 μL SuperSignal ELISA Femto Substrate (Thermo Scientific) was added to each well following incubation with anti-HuCK HRP antibody and subsequent washing. The luminescence was read using Clariostar Plus microplate reader. A further modification to this protocol was done where various detection scAbs were directly conjugated with HRP and detected using chemiluminescent protocol as before. The lowest levels of detection achieved using different detection scAbs and a comparison of colourimetric and chemiluminescent methods of detection are shown in Table 28
The assay was conducted using chemiluminescent protocol described above.

T1 sequence (P10636 1-441 isoform P10636-8): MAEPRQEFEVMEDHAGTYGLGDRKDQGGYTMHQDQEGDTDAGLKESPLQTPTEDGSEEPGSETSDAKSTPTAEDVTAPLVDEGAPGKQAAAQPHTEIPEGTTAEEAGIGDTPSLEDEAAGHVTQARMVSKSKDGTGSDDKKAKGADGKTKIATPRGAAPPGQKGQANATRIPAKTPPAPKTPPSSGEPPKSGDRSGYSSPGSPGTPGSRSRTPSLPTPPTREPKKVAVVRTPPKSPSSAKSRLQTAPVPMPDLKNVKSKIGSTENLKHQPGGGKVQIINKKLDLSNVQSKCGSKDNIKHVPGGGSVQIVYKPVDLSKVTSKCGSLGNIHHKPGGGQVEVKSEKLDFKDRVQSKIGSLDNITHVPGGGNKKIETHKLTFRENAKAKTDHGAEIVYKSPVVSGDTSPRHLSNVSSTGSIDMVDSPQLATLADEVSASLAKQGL

Molecule | Kd (dGAE) [s⁻¹] | cross-reactivity of 'E' group scAbs using hT40, dGA and dGAE antigens [2] | ability to capture aggregated dGAE (aggregated dGAE) | other results
E2E8: anti-tau clone, SEQ ID NO: 248 (protein, E2E8 amino acid sequence) scFv: QVQLQESGPSLVKPSQTLSLTCTVSGFSLTDRGVAWVRQAPGKALEWVGTMRSGGTIDYNPALKSRLSITRDTSKSQVFLSLSSVTTEDMAMYYCARGYLSGDRYAWGRGLLVTVSSEGKSSGASGESKVDDQAVLTQPSSVSKSLGQSVSIACSGSRSDIGYGNYVSWFQQIPGSAPKLLIYDTNTRASGVPDRFSGARSGNTATLTINSLQAEDEADYYCANIDSSRSHLFGSGTRLTVLG | 0.0001915 | specific dGAE binding | – | T441 binding (in words) (hT40 [1]; Table 23): No T441 binding; hT40 binding (in words) (hT40 [1]; Table 26 summary): No hT40 binding
S1G2 mAb: S1G2 reformatted as mAb, SEQ ID NO: 457 and 458 (antibody, S1G2 mAB Heavy Chain; S1G2 mAB Light Chain) heavy: QVQLQESGPSLVKPSQTLSLTCTVSGFSLTSNSVGWVRQAPGKAPEWVAGIDTDGEEGYNPALNSRLSITRDTSKSQVSLSLSSVTSEDTAVYYCGRSYRADGLAYGYVQAIDYWGPGLLVTVSSAKTTAPSVYPLAPVCGDTTGSSVTLGCLVKGYFPEPVTLTWNSGSLSSGVHTFPAVLQSDLYTLSSSVTVTSSTWPSQSITCNVAHPASSTKVDKKIEPRGPTIKPCPPCKCPAPNLLGGPSVFIFPPKIKDVLMISLSPIVTCVVVDVSEDDPDVQISWFVNNVEVHTAQTQTHREDYNSTLRVVSALPIQHQDWMSGKEFKCKVNNKDLPAPIERTISKPKGSVRAPQVYVLPPPEEEMTKKQVTLTCMVTDFMPEDIYVEWTNNGKTELNYKNTEPVLDSDGSYFMYSKLRVEKKNWVERNSYSCSVVHEGLHNHHTTKSFSRTPGK light: QAVVTQPSSVSGSLGQRVSITCSGSFIGISSVGWFQQLPGSGLRTIIVASDGRPSGVPDRFSMSKSGNTATLTISSLQAEDEADYFCGSSDRTPYTGVFGSGTRLTVLGGQPKSSPSVTLFPPSSEELETNKATLVCTITDFYPGVVTVDWKVDGTPVTQGMETTQPSKQSNNKYMASSYLTLTARAWERHSSYSCQVTHEGHTVEKSLSRADCS | – | – | most efficient at capturing aggregated dGAE | –
E1E8: anti-tau clone, SEQ ID NO: 250 (protein, E1E8 amino acid sequence) scFv: QVQLQESGPSLVKPSQTLSLTCTVSGFSLTDWGVAWVRQAPGKALEWLGTMRSGGTTDDNPALKSRLSITRDTSKSQVSLSLSSVTTEDMAMYYCARGYLSGVHYAWGRGLLVTVSSEGKSSGASGESKVDDQAVLTQPSSVSGSLGQSVSITCSGSSSNVGDGRYVSWFQQVPGSAPKLLIYDTTSRASGVPDRFSGSRSGNTATLIITSLQAEDEADYYCASIDSGNNLLFGSGTRLTVLG | 0.0014 | specific dGAE binding | – | –
E2E8 mAb: E2E8 reformatted as mAb, SEQ ID NO: 493 and 494 (antibody, E2E8 mAB Heavy Chain; E2E8 mAB Light Chain) heavy: QVQLQESGPSLVKPSQTLSLTCTVSGFSLTDRGVAWVRQAPGKALEWVGTMRSGGTIDYNPALKSRLSITRDTSKSQVFLSLSSVTTEDMAMYYCARGYLSGDRYAWGRGLLVTVSSAKTTAPSVYPLAPVCGDTTGSSVTLGCLVKGYFPEPVTLTWNSGSLSSGVHTFPAVLQSDLYTLSSSVTVTSSTWPSQSITCNVAHPASSTKVDKKIEPRGPTIKPCPPCKCPAPNLLGGPSVFIFPPKIKDVLMISLSPIVTCVVVDVSEDDPDVQISWFVNNVEVHTAQTQTHREDYNSTLRVVSALPIQHQDWMSGKEFKCKVNNKDLPAPIERTISKPKGSVRAPQVYVLPPPEEEMTKKQVTLTCMVTDFMPEDIYVEWTNNGKTELNYKNTEPVLDSDGSYFMYSKLRVEKKNWVERNSYSCSVVHEGLHNHHTTKSFSRTPGK light: QAVLTQPSSVSKSLGQSVSIACSGSRSDIGYGNYVSWFQQIPGSAPKLLIYDTNTRASGVPDRFSGARSGNTATLTINSLQAEDEADYYCANIDSSRSHLFGSGTRLTVLGGQPKSSPSVTLFPPSSEELETNKATLVCTITDFYPGVVTVDWKVDGTPVTQGMETTQPSKQSNNKYMASSYLTLTARAWERHSSYSCQVTHEGHTVEKSLSRADCS | – | – | most efficient at capturing aggregated dGAE | –
CA2: anti-tau clone, SEQ ID NO: 363 (protein, CA2 amino acid sequence) scFv: QVQLQESGPSLVKPSQTLSLTCTVSGFSLSSVAVNWVRQAPGKVPEWLGGIISNGGTGYNPALKSRLSITRDTSKSQVSLALTHVTTEDTAVYYCGRGVEWEGSMDYLGPGLLVTVSSEGKSSGSGSETKVDDQSVLTQPSSVSGFLGQRVTITCSGSSSNVGAGSYVGWYQQVPGSGLRILIYGATKRASGLPDRFSGSRSGNTATLTISSLQAEDEADYYCVSYQTDFTLVFGSGTRLTVLG | – | – | – | LoD chemiluminescence detection (hT40 [3]): 0.37 ng/mL; LoD colourimetric detection (hT40 [3]): 6 ng/mL
